Assay results as given in patent US20240132603A1 (HARBOUR BIOMED US, published 2024).
Read-outs that look alike come from different tables or passages of the source.

What was measured:
human CCR8 [1] = biological target: T1, human CCR8 (human, UniProt P51685 1-355); assay: FACS, Baf3-hCCR8 cells
T1 construct: whole, on cells; construct used for the overexpressing cell lines is not described; also called hCCR8
Experimental: (§1) Cells overexpressing human CCR8 were digested with pancreatin, counted and resuspended to a cell density of 1E6 cells/mL. The cell suspension was added to a 96-well V-bottom plate at 100 μL/well and centrifuged at 300 g for 5 min, and the supernatant was discarded. The anti-CCR8 antibodies provided herein was used as a primary antibody and diluted in a 5-fold gradient with an FACS buffer (DPBS containing 2% FBS) from 200 nM. The diluted primary antibody was added at 100 μL/well to resuspend the cells, and the mixture was incubated at 4° C. for 1 h. The plate was washed twice with DPBS and centrifuged at 300×g for 5 min, and the supernatant was discarded. The secondary antibody diluted in a 1:1000 ratio with an FACS buffer was added at 100 μL/well to suspend the cells, and the mixture was incubated at 4° C. for 40 min. The plate was washed twice with DPBS and centrifuged at 300×g for 5 min, and the supernatant was discarded. DPBS was added at 200 μL/well to suspend the cells, and the mixture was loaded on an FACS machine for analysis.

human CCR8 [2] = biological target: T1, human CCR8; assay: FACS, CHO-K1-hCCR8 cells
Experimental: as §1

human CCR8 [3] = biological target: T1, human CCR8; assay: FACS, HEK293-hCCR8 cells
Experimental: as §1

human CCR8 [4] = biological target: T1, human CCR8; assay: FACS, CHO-K1-hCCR8 cells; remark: listed apart in the source
Experimental: as §1

cynomolgus monkey CCR8 [5] = biological target: T2, cynomolgus monkey CCR8 (cynomolgus monkey, UniProt G7NYJ2 1-355); assay: FACS, CHO-K1-CynoCCR8 cells
T2 construct: whole, on cells; also called CynoCCR8
Experimental: as §1, with “cynomolgus monkey CCR8, CHO-K1-CynoCCR8,” for “human CCR8”

cynomolgus monkey CCR8 [6] = biological target: T2, cynomolgus monkey CCR8; assay: FACS, CHO-K1-CynoCCR8 cells; remark: listed apart in the source
Experimental: as §1, with “cynomolgus monkey CCR8, CHO-K1-CynoCCR8,” for “human CCR8”

T2 sequence (G7NYJ2 entry or part of it): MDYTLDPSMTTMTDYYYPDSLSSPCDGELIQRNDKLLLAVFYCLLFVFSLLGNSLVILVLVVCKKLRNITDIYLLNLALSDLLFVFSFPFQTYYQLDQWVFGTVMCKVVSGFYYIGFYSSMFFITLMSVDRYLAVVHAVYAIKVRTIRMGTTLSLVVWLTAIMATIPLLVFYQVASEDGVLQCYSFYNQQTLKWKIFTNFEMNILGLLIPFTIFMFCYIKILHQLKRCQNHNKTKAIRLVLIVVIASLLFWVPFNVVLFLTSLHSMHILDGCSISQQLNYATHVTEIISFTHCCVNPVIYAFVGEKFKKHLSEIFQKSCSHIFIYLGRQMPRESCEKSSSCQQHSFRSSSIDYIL
T1 sequence (P51685 whole entry): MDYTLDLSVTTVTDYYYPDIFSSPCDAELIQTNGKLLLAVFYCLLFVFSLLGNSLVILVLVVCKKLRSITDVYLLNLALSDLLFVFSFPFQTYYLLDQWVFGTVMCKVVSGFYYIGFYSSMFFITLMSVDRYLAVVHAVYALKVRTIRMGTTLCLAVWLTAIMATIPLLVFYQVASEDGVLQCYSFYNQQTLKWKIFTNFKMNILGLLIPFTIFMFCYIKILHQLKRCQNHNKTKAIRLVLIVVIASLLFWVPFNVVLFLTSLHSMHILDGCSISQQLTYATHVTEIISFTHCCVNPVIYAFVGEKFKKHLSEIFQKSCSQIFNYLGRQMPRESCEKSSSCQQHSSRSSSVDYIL

Row | EC50 (human CCR8 [1]) | EC50 (human CCR8 [2]) | EC50 (human CCR8 [3]) | EC50 (human CCR8 [4]) | EC50 (cynomolgus monkey CCR8 [5]) | EC50 (cynomolgus monkey CCR8 [6]) | Binder
1 | 0.24 nM | 0.54 nM | 1.1 nM |  |  |  | PR004120 (antibody, human IgG1, kappa, V domains shown, chimeric, human IgG1 constant region) VH: EVQLVESGGGLVQPKGSLKLSCAASGFTFNTNAMNWVRQAPGKGLEWVARIRSKMNNYATYYADSVKDRFTISRDDSQNMLYLQMNNLKTEDTAMYYCVRGKENGNYYAMDFWGQGTSVTVSA VL: DIVMTQAATSVLVTPGESVSISCRSSKSLLYSNGNTYLYWFLQRPGQSPQLLIYRMSNLASGVPDRFSGSGSGTAFTLRISRVEAEDVGVYYCMQHLEYPFTFGGGTKLEIKR
2 | 0.06 nM | 0.25 nM | 0.34 nM |  |  |  | PR004129 (antibody, human IgG1, kappa, V domains shown, chimeric, human IgG1 constant region) VH: EVQLVESGGGLVQPKGSLKLSCAASGFTFNTYAMNWVRQAPGKGLEWVARIRSKSNNYATYYADSVKDRFTISRDDSQSMLYLQMNNLKTEDTAMYYCVRGKDYGNYYAMDYWGQGTSVTVSS VL: DILLTQSPAILSVSPGERVSFSCRSSKSLLHSNGNTYLYWFLQRPGQSPQLLIYRMSNLASGVPDRFSGSGSGTAFTLRISRVEAEDVGVYYCMQHLEYPFTFGSGTKLEINR
3 | 0.17 nM | 0.45 nM | 0.58 nM |  |  |  | PR004124 (antibody, human IgG1, kappa, V domains shown, chimeric, human IgG1 constant region) VH: EVKVEESGGGLVQPGGSMKLSCAASGFTFNTYAMNWVRQAPGKGLEWVARIRSKSNNYATYYADSVKDRFTISRDDSQSMLYLQMNNLKTEDTAMYYCVRGKDYGNYYAMDFWGQGTSLTVSS VL: DIVMTQDELSNPVTSGESVSISCRSSKSLLHSNGNTYLYWFLQRPGQSPQLLIYRMSNLASGVPDRFSGSGSGTAFTLRISRVEAEDVGVYYCMQHLEYPFTFGGGTKLELKR
4 | 0.2 nM | 0.46 nM | 0.62 nM |  |  |  | PR004123 (antibody, human IgG1, kappa, V domains shown, chimeric, human IgG1 constant region) VH: EVQLVESGGGLVQPKGSLKLSCAASEFTFNTYAMNWVRQAPGKGLEWVARIRTKSNNFATYYADSVKDRFTISRDDSQSMLFLQMNNLKTEDTAMYYCVRGKENGNYYAMDFWGQGTSVTVSA VL: DIVMTQAAPSVPVTPGESVSISCRSSKSLLHSNGNTYLYWFLQRPGQSPQLLIYRMSNLASGVPDRFSGSGSGTAFTLRISRVEAEDVGVYYCMQHLEYPFTFGGGTKLELKR
5 | 0.2 nM | 0.46 nM | 0.8 nM |  |  |  | PR004130 (antibody, human IgG1, kappa, V domains shown, chimeric, human IgG1 constant region) VH: EVQLVESGGGLVQFKGSLKLSCGTSGFTFNTYAMNWVRQAPGKGLEWVARIRSKSNNYATFYADSVKDRFTISRDDSQNMLYLQMNNLKTEDTAMYYCVRGKENGNYYAMDFWGQGTSVTVSS VL: DIVMTQAAPSVPVTPGESVSISCRSSKSLLHSNGNTYLYWFLQRPGQSPQLLIYRMSNLASGVPDRFSGSGSGTAFTLRISRVEAEDVGVYYCMQHLEYPFTFGSGTKLEIKR
6 | 0.26 nM | 0.56 nM | 0.86 nM |  |  |  | PR004127 (antibody, human IgG1, kappa, V domains shown, chimeric, human IgG1 constant region) VH: EVQLVETGGGLVQPKGSLKLSCAASGFTFNTNAMNWVRQAPGKGLEWVARIRSKSNNYATYYADSVKDRFTISRDDSQNMLYLQMNNLKTEDTAMYYCVRGKENGNYYAMDFWGQGTSVTVSS VL: DIVMTQAATSVLVTPGESVSISCRSSKSLLYSNGNTYLYWFLQRPGQSPQLLIYRMSNLASGVPDRFSGSGSGTAFTLRISRVEAEDVGVYYCMQHLEYPFTFGGGTKLEMKR
7 | 0.18 nM | 0.43 nM | 0.58 nM |  |  |  | PR004126 (antibody, human IgG1, kappa, V domains shown, chimeric, human IgG1 constant region) VH: EVQLVESGGGLVQPKGSLKLSCAASGFTFSTNAMNWVRQAPGKGLEWVGRIRSKSNNYATYYADSVKDRFTISRDDSQSMLYLQMNNLKTEDTAMYYCVRGKENGNYYAMDFWGQGTSVTVSA VL: DIVITQAAPSVPVTPGESVSISCRSSKSLLHSNGNTYLYWFLQRPGQSPQLLIYRMSNLASGVPDRFSGSGSGTAFTLRISRVEAEDVGVYYCMQHLEYPFTFGAGTKLELKR
8 |  |  |  | 0.67 nM | 4.17 nM |  | PR004519 (antibody, human IgG1, kappa, V domains shown, humanized variant of PR004128, IgG1 with DE mutation) VH: EVQLVESGGGLVKPGGSLRLSCAASGFTFNTYAMNWVRQAPGKGLEWVGRIRSKSNNYATYYADSVKDRFTISRDDSKSTLYLQMNSLKTEDTAVYYCVRGKENGNYYAMDFWGQGTTVTVSS VL: DIVMTQSPLSLPVTPGEPASISCRSSKSLLHSNGKIYLYWFLQKPGQSPQLLIYRMSNLASGVPDRFSGSGSGTDFTLKISRVEAEDVGVYYCMQHLEYPLTFGQGTKLEIKR
9 |  |  |  | 1 nM | 4.42 nM |  | PR004523 (antibody, human IgG1, kappa, V domains shown, humanized variant of PR004128, IgG1 with DE mutation) VH: EVQLVESGGGLVQPGGSLRLSCAASGFTFNTYAMNWVRQAPGKGLEWVSRIRSKSNNYATYYADSVKDRFTISRDDSKSTLYLQMNSLRAEDTAVYYCVRGKENGNYYAMDFWGQGTTVTVSS VL: DIVMTQSPLSLPVTPGEPASISCRSSKSLLHSNGNTYLYWFLQKPGQSPQLLIYRMSNLASGVPDRFSGSGSGTDFTLKISRVEAEDVGVYYCMQHLEYPLTFGQGTKLEIKR
10 |  | 0.38 nM |  |  |  | 0.43 nM | PR006161 (antibody, human IgG1, kappa, V domains shown) VH: EVQLVESGGGLVKPGGSLRLSCAASGFTFSTYAMNWVRQAPGKGLEWVGRIRSKSNYYATYYADSVKDRFTISRDDSKSTLYLQMNSLKTEDTAVYYCVRGKEHGKYYAMDFWGQGTTVTVSS VL: DIVMTQSPLSLPVTLGQPASISCRSSKSLLHSNAKIYLYWFQQRPGQSPRLLIYRMSNLASGVPDRFSGSGSGTDFTLKISRVEAEDVGVYYCMQHLEYPLTFGQGTKLEIKR
11 |  | 0.72 nM |  |  | 1.61 nM |  | PR004669 (antibody, human IgG1, kappa, humanized; same VH/VL as PR004525, other heavy chain entry) heavy: not shown light: DIVMTQSPLSLPVTLGQPASISCRSSKSLLHSNGKIYLYWFQQRPGQSPRLLIYRMSNLASGVPDRFSGSGSGTDFTLKISRVEAEDVGVYYCMQHLEYPLTFGQGTKLEIKRTVAAPSVFIFPPSDEQLKSGTASVVCLLNNFYPREAKVQWKVDNALQSGNSQESVTEQDSKDSTYSLSSTLTLSKADYEKHKVYACEVTHQGLSSPVTKSFNRGEC
12 |  |  |  | 0.37 nM | 6.22 nM |  | PR004521 (antibody, human IgG1, kappa, V domains shown, humanized variant of PR004128, IgG1 with DE mutation) VH: EVQLVESGGGLVQPGGSLKLSCAASGFTFNTYAMNWVRQASGKGLEWVGRIRSKSNNYATYYADSVKDRFTISRDDSKSTLYLQMNSLKTEDTAVYYCVRGKENGNYYAMDFWGQGTTVTVSS VL: DIVMTQSPLSLPVTPGEPASISCRSSKSLLHSNGKIYLYWFLQKPGQSPQLLIYRMSNLASGVPDRFSGSGSGTDFTLKISRVEAEDVGVYYCMQHLEYPLTFGQGTKLEIKR
13 |  | 0.38 nM |  |  |  | 0.3 nM | PR006156 (antibody, human IgG1, kappa, V domains shown) VH: EVQLVESGGGLVKPGGSLRLSCAASGFTFSTYAMNWVRQAPGKGLEWVGRIRSKSNNYATYYADSVKDRFTISRDDSKSTLYLQMNSLKTEDTAVYYCVRGKEIGNYYAMDFWGQGTTVTVSS VL: DIVMTQSPLSLPVTLGQPASISCRSSKSLLHSNAKIYLYWFQQRPGQSPRLLIYRMSNLASGVPDRFSGSGSGTDFTLKISRVEAEDVGVYYCMQHLEYPLTFGQGTKLEIKR
14 |  |  |  | 1.31 nM | 4.6 nM |  | PR004520 (antibody, human IgG1, kappa, humanized variant of PR004128, IgG1 with DE mutation) heavy: not shown light: DIVMTQSPLSLPVTPGEPASISCRSSKSLLHSNGKIYLYWFLQKPGQSPQLLIYRMSNLASGVPDRFSGSGSGTDFTLKISRVEAEDVGVYYCMQHLEYPLTFGQGTKLEIKRTVAAPSVFIFPPSDEQLKSGTASVVCLLNNFYPREAKVQWKVDNALQSGNSQESVTEQDSKDSTYSLSSTLTLSKADYEKHKVYACEVTHQGLSSPVTKSFNRGEC
15 |  |  |  | 1.08 nM | 5.87 nM |  | PR004522 (antibody, human IgG1, kappa, V domains shown, humanized variant of PR004128, IgG1 with DE mutation) VH: EVQLVESGGGLVKPGGSLRLSCAASGFTFNTYAMNWVRQAPGKGLEWVGRIRSKSNNYATYYADSVKDRFTISRDDSKSTLYLQMNSLKTEDTAVYYCVRGKENGNYYAMDFWGQGTTVTVSS VL: DIVMTQSPLSLPVTPGEPASISCRSSKSLLHSNGNTYLYWFLQKPGQSPQLLIYRMSNLASGVPDRFSGSGSGTDFTLKISRVEAEDVGVYYCMQHLEYPLTFGQGTKLEIKR
16 |  | 0.73 nM |  |  |  | 0.42 nM | PR006157 (antibody, human IgG1, kappa, V domains shown) VH: EVQLVESGGGLVKPGGSLRLSCAASGFTFSTYAMNWVRQAPGKGLEWVGRIRSKSNYYATYYADSVKDRFTISRDDSKSTLYLQMNSLKTEDTAVYYCVRGKEIGNYYAMDFWGQGTTVTVSS VL: DIVMTQSPLSLPVTLGQPASISCRSSKSLLHSNAKIYLYWFQQRPGQSPRLLIYRMSNLASGVPDRFSGSGSGTDFTLKISRVEAEDVGVYYCMQHLEYPLTFGQGTKLEIKR
